In this test the target is pebb_human CBFB (UniProt Q13951).
Take “Virion infectivity factor (Human immunodeficiency virus type 1 group M subtype B (isolate HXB2) (HIV-1)), P69723 E88A;W89A”: the “effect of a mutation on the interaction” value is recorded as “disrupting interaction strength”. As for “Virion infectivity factor (Human immunodeficiency virus type 1 group M subtype B (isolate HXB2) (HIV-1)), P69723 W21A”, the entry is “disrupting interaction strength”; as for “Virion infectivity factor (Human immunodeficiency virus type 1 group M subtype B (isolate HXB2) (HIV-1)), P69723 W38A”, “decreasing interaction strength”. The same measure for “Virion infectivity factor (Human immunodeficiency virus type 1 group M subtype B (isolate HXB2) (HIV-1)), P69723 W89A”: “disrupting interaction strength”; for “Virion infectivity factor (Human immunodeficiency virus type 1 group M subtype B (isolate HXB2) (HIV-1)), P69723 Y69A”: “decreasing interaction strength”.
